Test results from a protein production outcome set (Wang et al. 2014).

experiment: label from the status in PepcDB records

Sequence	protein production
MRRRKAPVREVLGDPVYGNKVVTKFINKMMFDGKKSVAEKIIYKAFNKIEEKSGEKGIEVFEKALERVRPLVEVRSRRVGGATYQVPVEVRASRQQSLSIRWILEATRKRNERMMVDRLANELMDAASDKGAAFKKKEDVHKMAEANKAFAHYRW	failed
MRRRRRRDGFYLAPDFRHREAEDMAGVFDIDLDQPEDAGSEDELEEGGQLNESMDHGGVGPYELGMEHCEKFEISETSVNRGPEKIRPECFELLRVLGKGGYGKVFQVRKVTGANTGKIFAMKVLKKAMIVRNAKDTAHTKAERNILEEVKHPFIVDLIYAFQTGGKPYLILEYLSG	not failed
MRRSMRMNMSVASNIHSLLARLLPERVIAPPAPAGRRQRLFSGVGLPSQRSLLVNRLDEANDLQAVYVDLRRQALQGSVSALNDLGWIWLNGKYWRADTVLAGHLLRMAALQGNAAAWFNLGQQHYFGKGIDPSYVQAAECYRQAFDRGMLHAAAALGDLYEEEVCDGDLEWQVDLVQAYQWFLRGAEQGEARCRFEMGYRLMHGLHVEANLKAALYWLELAAAAGVVQAAEELAVHFSSRDAVRYQEWRDRAVQMGSTLALTMKLEDQIHP	failed
MRRTVRYILATSNPMGDLEALEKFVKLAPDTGADAIALIGNLMPKAAKSRDYAAFFRILSEAHLPTAYVPGPQDAPIWEYLREAANVELVHPEMRNVHETFTFWRGPYLVAGVGGEIADEGEPEEHEALRYPAWVAEYRLKALWELKDYPKIFLFHTMPYHKGLNEQGSHEVAHLIKTHNPLLVLVAGKGQKHEMLGASWVVVPGDLSEGEYSLLDLRARKLETGNVR	not failed
MRSDGRKEDQLRPVSIQRDFLEYPEGSCLISFGKTKVICTASVIENVPNWLKGKGQGWITAEYSMLPRATQQRTIRESVQGRIGGRTHEIQRMIGRAMRTAVELTKIGERTIWVDCDVIQADGGTRTAAITGAFVAVADAIIKLHKEGIIEETPIKDFVAAVSVGIVNDRILLDLNFEEDSAAQVDMNVVGTGSGRLSEVHTMGEEYSFTKDELIKMLDLAQKGINELIELQKKLYVIQDGKWERSELKEVSSTT	not failed
MRSGKIASEEYKDNPLTSCGTVRYWAAAKAAAGRHEETFTASTLSDLLEQVRQKYEGNAAMLAVLARSSFLVNATPVGVRPHHEVVLEPGWIVEVLPPFAGG	failed
MRSIRLRVDWRATASLLGTVLKYLAVALLVPLTVAVIYWEDIWVFAVAIAITVTLGFTLERLDPEPDMGPAEALLLVTVSWLAVAMVGSVPYLLAGYGTASTLANPVNALFESMSGFTTTGATVMGEISTDQHSHALLLWRQLTQWLGGMGIIVLMIAILPELAVNGAQLMKTEAPGPELQKLTPRIAETARVLWLVYFGFTVLLAALLYGLHLAGFAPNMHLYNAVAHAFTTLPTGGFSPESDSIAAFSAVVQWVIIPFMVIAGTNFALFWHLLDGDIRTLLNDAEFRVYAGAIAVLSAILAALLYGGAAPAQELGGTTAGNTENALRQAAFQVGSLMNSTGFATSDFAQWGPTAQALLLFTMFVGGSAGSTGGGIKVIRWLVVMKAIRRELSVTARPEAVKPVRLGGYVVDEDVVRGIMVFTLLYLALFGAATVFFAVDSLRVGYELSVLEAMSASIATLGNIGPGFGMLGPFGSYLGFPPETKIVMVFLMWVGRLEIIPVLAVFTGAFWKR	failed
MRSNHLPCWHTGPLSTLNVRPHLARAWHPLVCIYQRCLATALPTAPAVDSYCISTEIPYYDLVGRLGGKGPSKQTFTMQMLFHKKQRTPLGFCDGLDNVFVGFGSKDEKGCRPPKYHASYAPYYPIHKAASMGDVNTVKSFVERGVFAMEQTDWKYRTALHFACVYGHPEVVTLLVESSCEISPKDIKDATPLIKASQCRQTECLNILLKHGADPNIMDCSDNTALHYAVYNGDIETATKLLEYKANIEAINENKITPLLLALKQNKEKMAEFLIHNGANAKTCDFLGRSSLMYAVRCGSELIIKLLLQRDIDTFKQDVFGWTAKRYAVESKSRVRKLLIDYDEEELRQRCSVPKLSSSSLKELCLDSHYDRNTNISNTGKTREKFSQCTLWEEEHPILPTVKVKDSPRSEAVEKAEARPSKSESNEEDTCTTPTLPTTKVKDPSQSEAVEKAEARPSKSGKLTV	failed
MRSNYAKKLVAGTLVASMTITASMPLFADELATEIPSAGAAVIVEDYINNSGKETDIEKLLPTEATDSTATANETTKTENQTEKTQTSNTATSSEDKLFANIAITKVSGGAEDYVNVRKKPTTESKVVGKIYNNSGAKILEKTNNGWYKIVSGNCTGYIKSDFFVTGSSAKSRALDNGYVQAEAKDAIHVRAEASTNSKVVTNVYKNETYTIKKFDKTGEWIKVKIKAGVSGWISAQYANVNINMETAITRKIEKAKIKKEREAAKAAAKAAAEEEARKQAEQQEQQASNDNSQSSSDGTYSNSSNSSSRSNYSNSSSSSSSSSSSSSSSSSKKSHSSSSSSSSGSGTGAAIVAYAKQFLGNPYVYGGASLTNGTDCSGFTMSVYAHFGYGLSRSSYTQVNNGRAVSMSSLQPGDLLFYKYGGSTISHVAIYIGGGQIIHASTEETGIIISGMGSPCAARRIIG	failed
MRSPIKLEFSEKYDKDHAREYFLKHQDGLARRLSHKRDEQLARRALALAGEPGLVLDLPCGAGRFWPLLAEKPNRVIIGADNSEAMIETACAAQPPEVVARVRPLQTSAFAIDLPDNAVDSIFCMRLFHHIGESAHRKTILSEFQRVSRDSVILSLWVDGNFKAWRRKKLEQRRSAKAEQDNYQNRFVLPAETVEEEFRAAGFRIQERLDFLPFYAMWRVYVLRKG	failed
MRSTKIVCTVGPRTDSYEMIEKMIDLGVNVFRINTSHGDWNEQEQKILKIKDLREKKKKPVAILIDLAGPKIRTGYLEKEFVELKEGQIFTLTTKEILGNEHIVSVNLSSLPKDVKKGDTILLSDGEIVLEVIETTDTEVKTVVKVGGKITHRRGVNVPTADLSVESITDRDREFIKLGTLHDVEFFALSFVRKPEDVLKAKEEIRKHGKEIPVISKIETKKALERLEEIIKVSDGIMVARGDLGVEIPIEEVPIVQKEIIKLSKYYSKPVIVATQILESMIENPFPTRAEVTDIANAIFDGADALLLTAETAVGKHPLEAIKVLSKVAKEAEKKLEFFRTIEYDTSDISEAISHACWQLSESLNAKLIITPTISGSTAVRVSKYNVSQPIVALTPEEKTYYRLSLVRKVIPVLAEKCSQELEFIEKGLKKVEEMGLAEKGDLVVLTSGVPGKVGTTNTIRVLKVD	not failed
MRSVRKRTVLVSTLLALVLTQVARADDKGSHPAVIGDVHFKVECNATAQAKFNVAVAYYHSFQWQRVIATADDVLKVDPTCGMAHWVKALAMLDNPFAWPVTLSEKAIAEGPVLLDAARKAGLKTQRERDYVDALAIFFKDLNTTNYRERAESFEKAMAQLAQQNADDSEATVLYALILSRNFDPTDKTYRNQLHAAELLEPIFAREPNHPGVAHYLIHSYDYPPLAKRGIDAARKYAKIAPDTPHSLHMPSHIFTLTGFWQESIDTNRRAAEMADDSITHDGHHASDYMVYAHLQLGQDLAARKIMEQEQVRHGIDMIGVAYPYAAIPARIALERRAWREAADLPLYARDTYPWKKYPQAEAVNAFARGVGSAMSGEPAKANFEAKRLIKLRDAATAMKLNYWADQIDIQAEVVRGLADFAEGKRDEGIAILHRAAEREDASAKNVVTPGPVVPAREMLATILERDRKPADALAEFEKVLEQHPNRYRTIAGAAQNAKQAGNEQKADHYAELLLKLAEHADSPRPEIAEAKSMLGM	failed
MRTICVFNNKGGVGKTTLLCNLAAYFSIKRGKKVLVVDADPQCNATAYMIKEKVLDKLYASSSSDSATINSLIASLKKSKGYGIPPVLRSDGFNVDIVPGDPKFSLAEDFLAKDWLDAIAGDERGLRTTFFFRNLISWARSDGYDLVFFDMGPSLGAINRTVLLSSDHFILPMSSDIFSLRGLQNIEVALKNWTKGIERGLVSFKEDQGTSFKVESGDALSELGVSFLGYVTQQYTAKTVDGKKQPVSAYEKIIKKIDPLVSKHLILPLNKGQKLNYKLGEIPYFQSLVPMAQTATVPIFALKKADGVVGAHFDKVRQFDSVISGIVDKIEANMNSKGN	failed
MRTLGIIGFGGFGQFMVKHLQPYISVTVHDLTDLSHIAAEHKVEWGTLQETASKDIVILAVPVQFLESLLLEIKDYLKAEALIVDVSSVKVKPIELMLKHLPLTVDILGTHPLFGPQSGKNGIKGLNMVVCPVRSKKMRAITHFLRNVIQLNVLERTPETHDKQMAYVQALTHFIGRSINEMDIPDVEQKTPAYQYLLDIKRNLGGDSMDLFLTIELENPYAKKVREEFMGALKSLNDRLEHIKR	failed
MRTLLFLHLLGAAIWVGGHLVLALGILPGALRRRDPQAIRAFEQVYERIGIPALLLQVVSGLWLASLWLPFDHWFGATPVARALQLKLLLLAATAALGVHARLRLIPNLDAESLPKLGWHIAAITLVGLGFVAVGQSFRFGGAF	failed
MRTLLFLMLGSVSAIANAASPAPASASASAASATATATPEQIKLQLREYFFDAAREGRQDMLAEFIRSHYDLNTRDEKGYTALILAAYHGQRPAVEQLLSAGADPCAQDKRGNTALMGAIFKGELGIAKRLMQADCAPDQRNNAGQTAAMYAALFQRTDVLKDLAAKGADLSLKDGQGNDVTKLQRGEFATTPAR	failed
MRTLLITGPGGSGRTTVAAATALRASRTGTRTLVLSADRTDTLGAALGVPTGGAPVEAAPGLTAWRPDAADRFRADLTAFQDRAATALDFLGAARLDAEELTPLPGAEELALLRALRDAALSEAYDLLVVDLPPAPQALALLALPEELRRYLRRLLPPERQAARALRPVLGRLAGVPMPADWLYETAARWDVELAAVEAVVEDRATTVRLVAEPGPAGADAVRAAATGFALRAVRIDTLIANRLLPEEADDAWSAGLAAQQRKFLEEWRGEYRLHELPHLGHDPRGADDLAALAVPGVNDAPGPVEWSVADRLADDGVLVWHIPLPGAIRDELDLLRRGDELVVTAGQFRRIVPLPSALRRCTVAGAALREGELRIRFAPDPDLWPRERLEHHHHHH	not failed
MRTLRSLMLAAALAVALAVTGFAASPLPSAYAKYAAGPTKILPLQRAFPLDELVELSELRARDRVRHARILLGGGRQSSVGGVVDFPVQGSSDPYLVGLYFTKVKLGSPPTEFNVQIDTGSDILWVTCSSCSNCPHSSGLGIDLHFFDAPGSLTAGSVTCSDPICSSVFQTTAAQCSENNQCGYSFRYGDGSGTSGYYMTDTFYFDAILGESLVANSSAPIVFGCSTYQSGDLTKSDKAVDGIFGFGKGKLSVVSQLSSRGITPPVFSHCLKGDGSGGGVFVLGEILVPGMVYSPLVPSQPHYNLNLLSIGVNGQMLPLDAAVFEASNTRGTIVDTGTTLTYLVKEAYDLFLNAISNSVSQLVTPIISNGEQCYLVSTSISDMFPSVSLNFAGGASMMLRPQDYLFHYGIYDGASMWCIGFQKAPEEQTILGDLVLKDKVFVYDLARQRIGWASYDCKCNHRVMSYRKL	failed
MRTMPDKPDTWARIVAAISNPLWQGMIMAIVVSLLRILYDAKETSKRRILFEALICGSLSLVASSLIEWMTWPPSLSVAAGGTIGFLGVTAIRELVARFIGRKVDSL	failed
MRTPTTILLLVGAILFSGAGYVRSDASDHRYKEGDTVPLYANKVGPFHNPSETYRYFDLPFCIPEGVKEKKEALGEVLNGDRLVSAPYKLNFRDEKESEVYCNKKLSKEEVKQFRKAVEKDYYFQMYYDDLPIWGFIGKVDKDIKSDPSEFKYFLYKHIQFEILYNKDRVIEISARMDPHSLVDLTEDKEVDAEFMYTVKWKETETPFEKRMEKYSMSSSLPHHLEIHWFSIINSCVTVLLLTGFLATILMRVLKNDFMKYAQDEEAADDQEETGWKYIHGDVFRFPTHNSLFAASLGSGTQLFTLTIFIFMLALVGVFYPYNRGALFTALVVIYALTSGIAGYTSASFYCQLEGKSWVRNLLLTGCLFCGPLFLTFCFLNTVAITYTATAALPFGTIVVIVLIWTLVTSPLLVLGGIAGKNSKAEFQAPCRTTKYPREIPPLPWYRSAIPQMAMAGFLPFSAIYIELYYIFASVWGHRIYTIYSILFIVFIILIIVTAFITVALTYFQLAAEDHQWWWRSFLCGGSTGLFIYAYCLYYYYARSDMSGFMQTSFFFGYMACICYGFFLMLGTVGFRAALLFVRHIYRSIKCE	failed
